# Experimental data taken from patent US20230374078A1 (Janssen / Centocor, published 2023).
# B1: mAb PGT145 (antibody, V domains shown)
# VH: QVQLVQSGAEVKKPGSSVKVSCKASGNSFSNHDVHWVRQATGQGLEWMGWMSHEGDKTGLAQKFQGRVTITRDSGASTVYMELRGLTADDTAIYYCLTGSKHRLRDYFLYNEYGPNYEEWGDYLATLDVWGHGTAVTVSS
# VL: EVVITQSPLFLPVTPGEAASLSCKCSHSLQHSTGANYLAWYLQRPGQTPRLLIHLATHRASGVPDRFSGSGSGTDFTLKISRVESDDVGTYYCMQGLHSPWTFGQGTKVEIKR
# Molecular target: C97ZA_SOSIP_L556P_T651F_M535N (HIV-1 clade C strain C97ZA)
# Experiment: AlphaLISA on crude cell culture supernatant
binder,measurement,value
B1,"trimer yield (PGT145 AlphaLISA signal), fold over the C97ZA_SOSIP backbone",5 fold
